± gives the standard deviation.
Test: protein stability index of a GFP-peptide fusion (GPS, HEK-293T) (PSI 1-6); higher = more stable
Details: c terminus: a fixed tail appended
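Note: 24-mer peptide tiles fused after GFP, lentivirally expressed, FACS-sorted into six equal bins by GFP/DsRed ratio, decoded by Illumina sequencing, PSI is the read-weighted mean bin number.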

Row | Sequence | protein stability index (treatment: DMSO) | protein stability index (treatment: MLN4924 1 uM, 8 h)
1 | GVRVSVPCPSTTCCRACSVSFSTG [BET1L] | 2.49 ± 0.38 | 2.35 ± 0.31
2 | RRKGEMGLSAEDGVWAVIISHQQC [TRIM15] | 2.36 ± 0.49 | 2.16 ± 0.21
3 | RHPPKVGDDSDLSEGFESDSSHDS [SMG5] | 5.46 ± 0.18 | 5.51 ± 0.21
4 | TAFLPDSKCLVDDGTGRMPTLKKC [GALNT9] | 4.17 ± 0.18 | 4.16 ± 0.31
5 | EYEGGHIKTAVNLPLERDAESFLL [CDC25B] | 3.91 ± 0.16 | 3.97 ± 0.21
6 | NIYETGDVCISILHPPVDDPQSGE [CDC34] | 4.52 ± 0.11 | 4.51 ± 0.29
7 | THQTQPGIRRARDKALSGGKRKET [NET1] | 4.79 ± 0.23 | 5 ± 0.17
8 | PCAGSTSLSHSPGCSSTQGNGRPG [LCOR] | 3.74 ± 0.42 | 4.16 ± 0.33
9 | PGQPLPGASVRGLHPVQKVILNYP [TRAF3IP2] | 3.55 ± 0.36 | 3.45 ± 0.52
10 | RKISVNAKDEDQWTALHFAAQNGD [RIPK4] | 4.19 ± 0.26 | 4.59 ± 0.53
11 | RTHSVIKEETNHSEMAEDLCKIGS [IKZF1] | 4.9 ± 0.25 | 4.85 ± 0.46
12 | IHDALLEAVTCGNTEVPARNLYAY [PTPRD] | 2.29 ± 0.35 | 2.39 ± 0.14
13 | FQEAQIKRKARNEGRNRRRQQVLP [CDKL4] | 3.79 ± 0.54 | 4.08 ± 0.14
14 | KNEPYLEAACNDVDRWPAPVPGKT [DENND6A] | 4.62 ± 0.23 | 4.67 ± 0.19
15 | LMNDVIDTSGFPDLSDNRNEDPLV [FBXO33] | 4.85 ± 0.17 | 4.9 ± 0.18
16 | LSELPPLEDMGQPPAEEAEQPGAL [FKBP8] | 5.59 ± 0.18 | 5.72 ± 0.24
17 | NLLNMAYGVKSPLSLIARFSPIAI [ELAVL3] | 2.83 ± 0.58 | 2.81 ± 0.65
18 | DVRLLPRRLPLAFRDATSAPLRKL [DYRK1B] | 3.17 ± 0.27 | 3.02 ± 0.15
19 | VLDLQRIFALYSSLKFKSRVPQTW [PLD5] | 3.19 ± 0.94 | 2.09 ± 0.26
20 | SRLPAKCPGKGAWSIPWKWLFGAT [FKBP8] | 1.99 ± 0.22 | 2.05 ± 0.28
21 | GGLAESELRPRRGRCGPQAARAAG [POMT2] | 3.71 ± 0.17 | 3.75 ± 0.38
22 | MPPVSYDVQLLHSWNNNDRSLNVF [SPSB1] | 2.46 ± 0.15 | 2.26 ± 0.27

Row | Sequence | protein stability index (treatment: DMSO) | protein stability index (treatment: MLN4924 1 uM, 8 h)
23 | HVTLTLPPTQLEVNLEEIPGEGLL [C2CD2L] | 4.07 ± 0.18 | 3.96 ± 0.42
24 | RDQIFRYVHDPECVATTGDITVSV [FBXO3] | 2.52 ± 0.2 | 2.42 ± 0.27
25 | SDEYKIRRERNNIAVRKSRDKAKM [CEBPB] | 4.75 ± 0.27 | 5 ± 0.17
26 | DQNASTHTPQSSVKTSVPSSKSSG [CLINT1] | 5.02 ± 0.24 | 5.2 ± 0.14
27 | PCPSTTCCRACSVSFSTGAGGWSN [BET1L] | 2.27 ± 0.91 | 2.02 ± 0.47
28 | ATALAPLQTDHYAALLGSNSESWG [SPSB2] | 3.31 ± 0.32 | 3.28 ± 0.14
29 | GRGAVVPGAGLRRPTYTPPSIMPQ [ZBTB22] | 3.51 ± 0.3 | 3.74 ± 0.063
30 | KSLEWSPWNCILLTKDEAAAHLKL [IQUB] | 2.41 ± 0.22 | 2.56 ± 0.11
31 | TYLENKGHRYPCFFNTLHVGGTIR [POP5] | 2.23 ± 0.14 | 2.19 ± 0.052
32 | DEVARRWGKRKNKPKMNYEKLSRG [ETS2] | 4.11 ± 0.35 | 4.31 ± 0.52
33 | TIEQSLLEVMEEEELANLRASQRE [RSPH3] | 4.68 ± 0.24 | 4.88 ± 0.18
34 | FTCDEENVFAAVGRGLYVYSLQMK [WDR41] | 2.57 ± 0.56 | 2.38 ± 0.093
35 | QSDEEQDSVKVALLETNPYLLALT [CLPTM1] | 3.92 ± 0.19 | 4.16 ± 0.3
36 | EEQESVDTGEEEEGGDESDLSSES [EHMT1] | 5.57 ± 0.19 | 5.64 ± 0.16
37 | GTASSGSSRLPQPSGAGKTVVGVP [ZC2HC1A] | 4.74 ± 0.41 | 4.72 ± 0.12
38 | ARMLFSAVEWARNIPFFPDLQITD [NR2F2] | 2.1 ± 0.21 | 2.09 ± 0.28
39 | IITIGYNVYHSYDLPWFRTLSWYF [CDS2] | 3.08 ± 0.23 | 3.2 ± 0.27
40 | LLQQNKSIQSLTLEWNSLGTWDDA [LRRC45] | 2.65 ± 0.094 | 2.64 ± 0.42
41 | VGESVEEAFYYIHNLVVACEIQVR [ADD1] | 2.79 ± 0.37 | 2.91 ± 0.72
42 | LLGLRTFVAFAAKLWSFFIYLLRR [CTDNEP1] | 4.28 ± 0.38 | 4.16 ± 0.3
43 | VSHVFMLLFNVKSPTDIQDSSIIR [RHOBTB3] | 2.81 ± 0.56 | 2.64 ± 0.48
44 | MTWSPLACGIVSGKYDSGIPPYSR [KCNAB2] | 3.19 ± 0.54 | 2.92 ± 0.3

Row | Sequence | protein stability index (treatment: DMSO) | protein stability index (treatment: MLN4924 1 uM, 8 h)
45 | HNNNNNCEENEQSLPPPAGLNSSW [BNIP3L] | 4.96 ± 0.17 | 5.09 ± 0.078
46 | LTRRLAHGEELRVSARSREGRGGR [HAGHL] | 4.87 ± 0.22 | 4.99 ± 0.079
47 | QVSHDFLETRFKIQQLLEPQQYMA [FBXO34] | 3.85 ± 0.49 | 4.15 ± 0.29
48 | RGNRLKTTSWGLLSLGALVALCWQ [SCNN1D] | 2.3 ± 0.26 | 2.16 ± 0.24
49 | LLCNAITGITLLRVKFKSQQHRQG [PTGFR] | 2.38 ± 0.46 | 2.21 ± 0.77
50 | LLTITKAHSNAISNCCFTFSGHFL [WDR88] | 3.12 ± 1.1 | 2.59 ± 0.48
51 | GFALNPDKKTCTKIDYCASSNHGC [MATN2] | 3.53 ± 0.31 | 3.57 ± 0.64
52 | MVQLDSIEDLEVTCTWKLPTLAKF [PRAME] | 2.6 ± 0.45 | 2.75 ± 0.64
53 | QMELLLVNKLKWNLAAMTPHDFIE [CCND1] | 2.91 ± 0.6 | 2.71 ± 0.5
54 | DLDETLIHSHHDGVLRPTVRPGTP [CTDNEP1] | 4.53 ± 0.086 | 4.67 ± 0.21
55 | IVSLLLGTIHALIFAWNKWIDIKQ [STEAP1] | 2.06 ± 0.44 | 2.17 ± 0.29
56 | ETLLGDPEKRTQYFDPLRNEYFFD [KCNA4] | 2.91 ± 0.48 | 3.81 ± 0.9
57 | LPSLSCRTSCSSRPCVPPSCHGYT [KRT33B] | 2.1 ± 0.11 | 2.09 ± 0.36
58 | NRPSFDAILYYYQSGGRLRRPVNV [KCNA1] | 2.24 ± 0.085 | 2.37 ± 0.14
59 | CQLALQQKRETLSPLCLIPMVTSP [KCTD13] | 2.27 ± 0.16 | 2.19 ± 0.17
60 | PERSYVFNGDFVDRGKDSVEILMI [PPEF2] | 2 ± 0.38 | 2.23 ± 0.31
61 | LVENDQQLQKILSIPQSSLEPLKA [ACSBG2] | 3.66 ± 0.34 | 3.99 ± 0.41
62 | NREVATNSELVQSGKSEISELRRT [KRT17] | 5 ± 0.22 | 5.09 ± 0.24
63 | AIETAMEDLKGHVAETSGETIQGF [TPRG1] | 4.82 ± 0.26 | 5.03 ± 0.3
64 | ANRWSFEGMDRWIKKIEEHAPGVP [RAB40A] | 3.33 ± 0.26 | 3.4 ± 0.33
65 | SRDGMNIVLNKINQILMEKYLKLQ [INTS3] | 3.05 ± 0.81 | 2.43 ± 0.58
